Holding throughout (experiment): SPR
(SPR reads the build-up and loss of mass on a sensor chip optically.)

Assay [1] concerns the target T1, Recombinant B7-H4 (UniProt Q7Z7D3 25-259, N-glycans, including high mannose glycans through which PFL binds).
T1 chain: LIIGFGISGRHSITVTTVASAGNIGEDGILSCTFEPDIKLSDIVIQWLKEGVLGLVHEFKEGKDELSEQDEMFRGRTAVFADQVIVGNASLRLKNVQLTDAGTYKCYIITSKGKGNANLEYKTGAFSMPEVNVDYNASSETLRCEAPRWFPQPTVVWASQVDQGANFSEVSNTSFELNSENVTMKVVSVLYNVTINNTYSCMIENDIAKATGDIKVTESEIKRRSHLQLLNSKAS

The target in assay [2] is T2, Recombinant integrin αvβ3 (UniProt P06756 31-1048; P05106 27-718).
T2 chain 1: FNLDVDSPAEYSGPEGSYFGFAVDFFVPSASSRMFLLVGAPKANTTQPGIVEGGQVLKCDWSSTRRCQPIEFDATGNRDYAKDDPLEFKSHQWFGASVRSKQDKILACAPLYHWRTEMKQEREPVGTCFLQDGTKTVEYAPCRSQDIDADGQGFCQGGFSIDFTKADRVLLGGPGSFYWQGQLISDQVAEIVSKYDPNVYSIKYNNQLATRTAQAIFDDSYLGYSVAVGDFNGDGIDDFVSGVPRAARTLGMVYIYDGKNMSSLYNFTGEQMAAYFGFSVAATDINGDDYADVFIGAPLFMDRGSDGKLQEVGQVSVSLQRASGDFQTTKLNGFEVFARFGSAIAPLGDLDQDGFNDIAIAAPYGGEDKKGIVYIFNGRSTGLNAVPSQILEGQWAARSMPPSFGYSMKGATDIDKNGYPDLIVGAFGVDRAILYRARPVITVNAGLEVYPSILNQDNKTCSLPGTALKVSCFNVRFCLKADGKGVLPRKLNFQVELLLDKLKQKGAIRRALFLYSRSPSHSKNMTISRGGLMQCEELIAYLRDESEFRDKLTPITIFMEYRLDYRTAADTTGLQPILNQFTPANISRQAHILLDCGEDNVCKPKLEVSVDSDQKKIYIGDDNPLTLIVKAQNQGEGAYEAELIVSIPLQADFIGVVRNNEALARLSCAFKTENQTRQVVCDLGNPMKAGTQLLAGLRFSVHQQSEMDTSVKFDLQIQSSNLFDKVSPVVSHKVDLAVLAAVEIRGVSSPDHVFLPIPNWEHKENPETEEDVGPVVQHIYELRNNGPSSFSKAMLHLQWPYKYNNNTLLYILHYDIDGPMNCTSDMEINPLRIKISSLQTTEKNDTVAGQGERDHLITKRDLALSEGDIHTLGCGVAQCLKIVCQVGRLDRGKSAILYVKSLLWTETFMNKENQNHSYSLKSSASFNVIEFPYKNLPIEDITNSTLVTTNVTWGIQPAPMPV
T2 chain 2: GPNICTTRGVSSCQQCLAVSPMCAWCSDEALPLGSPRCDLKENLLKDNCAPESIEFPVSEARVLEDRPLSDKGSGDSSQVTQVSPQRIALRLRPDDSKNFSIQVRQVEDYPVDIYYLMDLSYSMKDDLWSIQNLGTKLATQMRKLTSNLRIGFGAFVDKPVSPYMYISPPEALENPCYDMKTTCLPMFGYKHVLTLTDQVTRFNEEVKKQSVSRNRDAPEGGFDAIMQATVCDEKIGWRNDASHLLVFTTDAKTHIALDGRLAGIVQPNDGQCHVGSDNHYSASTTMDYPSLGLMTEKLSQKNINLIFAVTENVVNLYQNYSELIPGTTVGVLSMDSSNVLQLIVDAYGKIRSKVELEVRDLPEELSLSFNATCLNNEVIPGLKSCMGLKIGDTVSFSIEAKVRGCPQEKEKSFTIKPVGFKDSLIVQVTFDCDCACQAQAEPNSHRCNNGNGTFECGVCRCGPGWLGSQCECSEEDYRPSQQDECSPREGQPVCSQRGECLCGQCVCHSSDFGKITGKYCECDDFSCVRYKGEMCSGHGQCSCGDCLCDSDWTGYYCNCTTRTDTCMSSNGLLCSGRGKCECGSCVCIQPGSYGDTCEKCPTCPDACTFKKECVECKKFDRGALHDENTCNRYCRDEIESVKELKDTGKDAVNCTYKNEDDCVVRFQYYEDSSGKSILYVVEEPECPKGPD

Assay [3] has as its target T1, Recombinant B7-H4.
Assay [4] deals with T2, Recombinant integrin αvβ3.

A word on the koff: it is a measure of how fast the partners let go of each other. As a reminder, the Kd is the concentration at which binding is half-saturated.

B1: Pseudomonas fluorescens lectin (PFL) (natural protein)
chain: MSKYAVANQWGGSSAPWHPGGTWVLGARDNQNVVAIEIKSGDGGKSFTGTMTYAGEGPIGFKAQRTGQNQYNVENQWGGNDAPWHPGGKWVIGGRDNQNVIALSVTSSDGGKNLSGTNTYANEGPIGFRGQIE
Regarding B1, the koff with Recombinant B7-H4 [1] turned out to be 0.00043 s⁻¹; in assay [2] it was 8.69e-06 s⁻¹. In addition, the Kd in the assay with Recombinant B7-H4 [3] amounted to 5.35 nM; in assay [4] it was 1.65 nM.

These data come from PMC6562446 (2019).
